According to paper PMC12302606, “The SlDOF9‐SlSWEET17 Module: a Switch for Controlling Sugar Distribution Between Nematode Induced Galls and Roots in Tomato”:
Positions count from the first letter of the chain named.

B1: TS1 (dsDNA)
DNA 1: AAAAAGTGATAAGAAAAAACATCCAAGCCCT
DNA 2: AGGGCTTGGATGTTTTTTCTTATCACTTTTT
B2: TS1m (dsDNA)
DNA 1: B1 DNA 1 with A3C, A5T
DNA 2: B1 DNA 2 with T27A, T29G
B3: TS2 (dsDNA)
DNA 1: AGCCAGAAAAGAAAATACAATAATTCTCATT
DNA 2: AATGAGAATTATTGTATTTTCTTTTCTGGCT

Biological target: SlDOF9-His (Solanum lycopersicum, UniProt A0A3Q7FC45 1-258)
Assay: EMSA (supershift); anti-His antibody; Biotin-labeled and unlabeled probes with purified protein and anti-His antibody, room temperature, 30 min; buffer from kit, salt and pH not stated
Details: protein: recombinant, tags: C-terminal His, blunt

SlDOF9-His, sequence (A0A3Q7FC45 entry or part of it): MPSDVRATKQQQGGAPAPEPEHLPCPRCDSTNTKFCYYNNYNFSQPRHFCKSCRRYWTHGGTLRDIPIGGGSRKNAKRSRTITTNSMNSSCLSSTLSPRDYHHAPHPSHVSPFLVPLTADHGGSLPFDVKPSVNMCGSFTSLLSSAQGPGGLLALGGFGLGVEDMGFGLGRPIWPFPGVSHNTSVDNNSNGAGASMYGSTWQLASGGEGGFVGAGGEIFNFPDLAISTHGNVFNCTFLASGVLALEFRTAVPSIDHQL

Row | Binder | binding result (label: biotin (labeled probe)) | binding result
1 | B1 | binds | 
2 | B2 |  | no binding
3 | B3 | binds | 
